Reference: PMC6308316, “Characterization of a Putrescine Transaminase From Pseudomonas putida and its Application to the Synthesis of Benzylamine Derivatives” (Frontiers in Bioengineering and Biotechnology, 2018)

Target: the molecule itself
Experiment: crystal structure; apo Pp-SpuC; crystals in 0.2 M MgCl2, 0.1 M Bis-Tris pH 6.5, 25% PEG3350, 20°C; two monomers in the asymmetric unit

B1: putrescine transaminase from Pseudomonas putida (Pp-SpuC) (enzyme)
chain: MSTNNPQTREWQTLSGEHHLAPFSDYKQLKEKGPRIITKAQGVHLWDSEGHKILDGMAGLWCVAVGYGREELVQAAEKQMRELPYYNLFFQTAHPPALELAKAITDVAPEGMTHVFFTGSGSEGNDTVLRMVRHYWALKGKPHKQTIIGRINGYHGSTFAGACLGGMSGMHEQGGLPIPGIVHIPQPYWFGEGGDMTPDAFGIWAAEQLEKKILEVGEDNVAAFIAEPIQGAGGVIIPPETYWPKVKEILAKYDILFVADEVICGFGRTGEWFGSDYYDLKPDLMTIAKGLTSGYIPMGGVIVRDKVAKVISEGGDFNHGFTYSGHPVAAAVGLENLRILRDEQIVEKARTEAAPYLQKRLRELQDHPLVGEVRGLGMLGAIELVKDKATRSRYEGKGVGMICRTFCFENGLIMRAVGDTMIIAPPLVISHAEIDELVEKARKCLDLTLEAIR
notes: putrescine transaminase SpuC of Pseudomonas putida (strain NBRC 14161 bought from NCIMB), cloned in pET-28b as in Galman et al., 2017; in the crystal residues 1-33, 154-179 and 313-324 are disordered; No cleavage of the tag is told; Crystallised in the apo form (no PLP seen); also called putrescine transaminase spuC; source: E. coli BL21 (DE3), pET28b, purified (Ni-NTA, ion exchange on …)
stoichiometry N: 2
